The values that follow come from US20260242478A1 (published 2026).

Where no end group is shown, it is not given here.

Assay [1] has as its target T1, PSMA Fab (biotinylated (site not stated)).
T1 construct: also called Anti-PSMA Fab; 006 PSMA Fab
The assay can be described thus: clonal phage ELISA; biotinylated PSMA Fab on neutravidin plate, blocking buffer alone, anti-M13-HRP detection.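 Note: crude clonal phage supernatants added without washing to wells preincubated with PSMA antigen or with blocking buffer alone, briefly incubated, then washed before bound phage detection.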 For orientation: An ELISA detects its analyte on a solid surface through an enzyme-linked reagent.

Assay [2] concerns the target T1, PSMA Fab. Description: clonal phage ELISA; biotinylated PSMA Fab on neutravidin plate, wells pre-incubated with PSMA antigen as competitor, anti-M13-HRP detection.
Description: (§1) Clonal phage were harvested as crude supernatants and screened via standard ELISAs. […] Prior to the addition of clonal phage. wells were incubated with blocking buffer and PSMA antigen or blocking buffer alone. Without washing or aspirating, clonal phage supernatants were then added to the wells and incubated for a short time. Wells were then washed followed by detection of bound phage using a horse radish conjugated anti-M13 antibody.
Assay [3] has as its target T2, PSMA Fab.
T2 construct: also called Anti-PSMA Fab; 006 PSMA Fab
Description: clonal phage ELISA; biotinylated PSMA Fab on neutravidin plate; anti-M13-HRP detection; no PSMA antigen.
Description: as §1

Assay [4] concerns the target T2, PSMA Fab. Description: clonal phage ELISA; biotinylated PSMA Fab on neutravidin plate; wells pre-incubated with PSMA antigen as competitor; anti-M13-HRP detection.
Description: as §1
Assay [5] has as its target T3, PSMA Fab.
T3 construct: also called Anti-PSMA Fab; 006 PSMA Fab
Description: clonal phage ELISA; biotinylated PSMA Fab on neutravidin plate, anti-M13 HRP detection.
Description: as §1

In assay [6] the target is T3, PSMA Fab. Description: clonal phage ELISA on captured PSMA Fab; wells pre-incubated with PSMA antigen as competitor.
Description: as §1
Assay [7] has as its target T4, PSMA Fab.
T4 construct: also called Anti-PSMA Fab; 006 PSMA Fab
The assay can be described thus: phage ELISA; biotinylated PSMA Fab on neutravidin plate pre-incubated with PSMA antigen as competitor, anti-M13 HRP detection.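 Note: crude clonal phage supernatants tested, compared against control wells pre-incubated with blocking buffer only, without PSMA antigen.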
Description: as §1

Assay [8] deals with T4, PSMA Fab. The assay can be described thus: phage ELISA; biotinylated PSMA Fab on neutravidin plate, clonal phage supernatant, anti-M13 HRP detection, blocking buffer alone.
Description: as §1

ITKLCTPPWMCMDV [Phage-2668]: the “Phage binding ELISA signal, Anti-PSMA Fab” value with PSMA Fab [1] stood at 0.886; in the assay with PSMA Fab [2], 0.0571.

As for VTNWCIPEWMCNGN [Phage-2667], the “Phage binding ELISA signal, Anti-PSMA Fab” value came to 0.894 in the assay with PSMA Fab [1] and 0.0615 with PSMA Fab [2].

WDNWCTPSWMCSEL [Phage-2671]: the “Phage binding ELISA signal, Anti-PSMA Fab” value with PSMA Fab [1] worked out at 0.883; with PSMA Fab [2], 0.0853.

For EMKWCTPPWMCTEL [Phage-2460], the “Phage binding ELISA signal, Anti-PSMA Fab” value with PSMA Fab [3] stood at 1.26. For the same molecule, the “Phage binding ELISA signal, Anti-PSMA Fab with PSMA antigen” value with PSMA Fab [4] was found to be 0.0656.

Consider PVKLCKPDWMCWVS [Phage-2464], for which the “Phage binding ELISA signal, Anti-PSMA Fab” value in the assay with PSMA Fab [3] is 1.25. Moreover, in the assay with PSMA Fab [4], the “Phage binding ELISA signal, Anti-PSMA Fab with PSMA antigen” value was 0.105.

B1: Phage-2850 (peptide)
peptide: VNIRCEPAWMCMGF
modifications: cysteine pairing not given here; also: fused to phage pIII, linker not given here
notes: Clonal phage of the Peptide-180 library; not shown: pIII filament protein of the display bacteriophage
With B1, in the assay with PSMA Fab [5], the “Phage binding ELISA signal, Anti-PSMA Fab” value is 2.46. For the same molecule, the “Phage binding ELISA signal (Anti-PSMA Fab, with competitor)” value with PSMA Fab [6] came to 0.108.

Regarding GEKWCIPSWMCVAV [Phage-2456], the “Phage binding ELISA signal, Anti-PSMA Fab” value with PSMA Fab [3] is 1.27. Also, the “Phage binding ELISA signal, Anti-PSMA Fab with PSMA antigen” value with PSMA Fab [4] is 0.0549.

B2: Phage-2368 (peptide)
peptide: DGVWCVPQWMCDGY
notes: Peptide-180 library clone, tested as clonal phage supernatant
For B2, in the assay with PSMA Fab [7], the “Phage binding ELISA signal, Anti-PSMA Fab in the presence of PSMA antigen” value (shortened to “Phage binding ELISA signal … of PSMA antigen”) was determined as 0.0722. The “Phage binding ELISA signal, Anti-PSMA Fab” value in the assay with PSMA Fab [8] came to 1.4.

B3: Phage-2371 (peptide)
peptide: VDKWCIPSWMCEFY
notes: as for B2
B3: the “Phage binding ELISA signal … of PSMA antigen” value with PSMA Fab [7] is 0.0767. The “Phage binding ELISA signal, Anti-PSMA Fab” value with PSMA Fab [8] is 1.4.

As to SVKMCIPEWMCENI [Phage-2452], the “Phage binding ELISA signal, Anti-PSMA Fab” value with PSMA Fab [3] stood at 1.28. Further, in the assay with PSMA Fab [4], the “Phage binding ELISA signal, Anti-PSMA Fab with PSMA antigen” value was 0.0646.

B4: Phage-2370 (peptide)
peptide: LEKWCIPSWMCSTL
notes: as for B2
For the molecule B4, the “Phage binding ELISA signal … of PSMA antigen” value with PSMA Fab [7] was determined as 0.0829. Moreover, the “Phage binding ELISA signal, Anti-PSMA Fab” value with PSMA Fab [8] is 1.4.

Consider DEIWCIPRWMCDGI [Phage-2462], for which, in the assay with PSMA Fab [3], the “Phage binding ELISA signal, Anti-PSMA Fab” value stood at 1.25. In addition, in the assay with PSMA Fab [4], the “Phage binding ELISA signal, Anti-PSMA Fab with PSMA antigen” value turned out to be 0.0834.

Take SVHECRPLWMCQGF [Phage-2455]: in the assay with PSMA Fab [3], the “Phage binding ELISA signal, Anti-PSMA Fab” value was 1.27. Further, in the assay with PSMA Fab [4], the “Phage binding ELISA signal, Anti-PSMA Fab with PSMA antigen” value stood at 0.073.

With LDMLCIPAWMCEPR [Phage-2674], the figures for the “Phage binding ELISA signal, Anti-PSMA Fab” value with PSMA Fab [1] and in the assay with PSMA Fab [2] were 0.877 and 0.0925, respectively.

Regarding DTNWCRPAWMCAFA (cysteine pairing not given here; also: displayed as fusion to phage pIII) [Phage-2458], in the assay with PSMA Fab [3], the “Phage binding ELISA signal, Anti-PSMA Fab” value worked out at 1.27. For the same molecule, in the assay with PSMA Fab [4], the “Phage binding ELISA signal, Anti-PSMA Fab with PSMA antigen” value was determined as 0.0649.

As to QEKWCIPEWMCSVR [Phage-2672], the “Phage binding ELISA signal, Anti-PSMA Fab” value in the assay with PSMA Fab [1] came out at 0.879; with PSMA Fab [2] it was 0.0823.

B5: Phage-2372 (peptide)
peptide: QVQWCIPPWMCLED
notes: as for B2
As to B5, in the assay with PSMA Fab [7], the “Phage binding ELISA signal … of PSMA antigen” value was 0.0887. Moreover, the “Phage binding ELISA signal, Anti-PSMA Fab” value with PSMA Fab [8] stood at 1.4.

B6: Phage-2369 (peptide)
peptide: GLGWCTPTWMCEGF
notes: as for B2
For B6, the “Phage binding ELISA signal … of PSMA antigen” value in the assay with PSMA Fab [7] stood at 0.0727. Further, in the assay with PSMA Fab [8], the “Phage binding ELISA signal, Anti-PSMA Fab” value was 1.4.

On to EHKWCIPDWMCWED [Phage-2675], for which the “Phage binding ELISA signal, Anti-PSMA Fab” value came out at 0.876 with PSMA Fab [1] and 0.0562 in the assay with PSMA Fab [2].

With AGKLCIPNWMCEEQ [Phage-2670], the “Phage binding ELISA signal, Anti-PSMA Fab” value in the assay with PSMA Fab [1] is 0.884; with PSMA Fab [2] it was 0.0913.

With VETWCIPHWMCAGF (cysteine pairing not given here; also: displayed as fusion to phage pIII) [Phage-2453], the “Phage binding ELISA signal, Anti-PSMA Fab” value with PSMA Fab [3] turned out to be 1.27. Further, in the assay with PSMA Fab [4], the “Phage binding ELISA signal, Anti-PSMA Fab with PSMA antigen” value is 0.0685.

B7: Phage-2852 (peptide)
peptide: VMPLCKPAWMCGGF
modifications: cysteine pairing not given here; also: fused to pIII of display bacteriophage, linker and sequence not given here
notes: as for B1
Turning to B7, the “Phage binding ELISA signal, Anti-PSMA Fab” value with PSMA Fab [5] amounted to 2.46. Moreover, the “Phage binding ELISA signal (Anti-PSMA Fab, with competitor)” value with PSMA Fab [6] came to 0.134.

B8: Phage-2676 (peptide)
peptide: IAKWCTPPWMCADN
modifications: cysteine pairing not given here; also: displayed on bacteriophage as fusion to pIII
On to B8, for which the “Phage binding ELISA signal, Anti-PSMA Fab” value was found to be 0.876 in the assay with PSMA Fab [1] and 0.079 with PSMA Fab [2].

Consider TQMWCIPFWMCEVQ [Phage-2459], for which the “Phage binding ELISA signal, Anti-PSMA Fab” value in the assay with PSMA Fab [3] worked out at 1.27. Besides, the “Phage binding ELISA signal, Anti-PSMA Fab with PSMA antigen” value in the assay with PSMA Fab [4] worked out at 0.0885.

WDHLCKPRWMCDGI (cysteine pairing not given here; also: displayed as fusion to phage pIII) [Phage-2451]: in the assay with PSMA Fab [3], the “Phage binding ELISA signal, Anti-PSMA Fab” value stood at 1.28. The “Phage binding ELISA signal, Anti-PSMA Fab with PSMA antigen” value with PSMA Fab [4] was found to be 0.0744.

As for VEILCKPAWMCRLD [Phage-2457], in the assay with PSMA Fab [3], the “Phage binding ELISA signal, Anti-PSMA Fab” value was 1.27. In the assay with PSMA Fab [4], the “Phage binding ELISA signal, Anti-PSMA Fab with PSMA antigen” value was 0.062.

Turning to SGNWCTPSWMCTGF [Phage-2677], the “Phage binding ELISA signal, Anti-PSMA Fab” value with PSMA Fab [1] was found to be 0.874; with PSMA Fab [2] it was 0.062.

Regarding EEKWCIPYWMCEAV [Phage-2669], the “Phage binding ELISA signal, Anti-PSMA Fab” value was 0.885 with PSMA Fab [1] and 0.0691 with PSMA Fab [2].

B9: Phage-2851 (peptide)
peptide: DMRLCVPEWMCLGL
modifications: cysteine pairing not given here; also: displayed on phage as fusion to pIII, linker and sequence not given here
notes: as for B1
Turning to B9, the “Phage binding ELISA signal, Anti-PSMA Fab” value with PSMA Fab [5] came to 2.46. The “Phage binding ELISA signal (Anti-PSMA Fab, with competitor)” value with PSMA Fab [6] was 0.0789.

Regarding DWKWCTPAWMCTQT [Phage-2673], the “Phage binding ELISA signal, Anti-PSMA Fab” value is 0.877 with PSMA Fab [1] and 0.0698 with PSMA Fab [2].

B10: Phage-2678 (peptide)
peptide: NVIRCEPMWMCYPS
modifications: cysteine pairing not given here; also: displayed on bacteriophage as fusion to pIII
B10: the “Phage binding ELISA signal, Anti-PSMA Fab” value with PSMA Fab [1] is 0.874; with PSMA Fab [2], 0.0918.

Regarding AGHWCIPMWMCQED [Phage-2679], the “Phage binding ELISA signal, Anti-PSMA Fab” value with PSMA Fab [1] turned out to be 0.874; with PSMA Fab [2], 0.0526.

Consider VMKWCTPQWMCEHL [Phage-2465], for which the “Phage binding ELISA signal, Anti-PSMA Fab” value in the assay with PSMA Fab [3] was 1.25. In the assay with PSMA Fab [4], the “Phage binding ELISA signal, Anti-PSMA Fab with PSMA antigen” value worked out at 0.068.

With DGKWCIPEWMCAQQ (cysteine pairing not given here; also: displayed as fusion to phage pIII) [Phage-2463], the “Phage binding ELISA signal, Anti-PSMA Fab” value in the assay with PSMA Fab [3] came out at 1.25. Also, in the assay with PSMA Fab [4], the “Phage binding ELISA signal, Anti-PSMA Fab with PSMA antigen” value turned out to be 0.0837.

B11: Phage-2666 (peptide)
peptide: PPKWCIPAWMCAGM
modifications: cysteine pairing not given here; also: displayed on bacteriophage as fusion to pIII
On to B11, for which the “Phage binding ELISA signal, Anti-PSMA Fab” value is 0.895 in the assay with PSMA Fab [1] and 0.0794 with PSMA Fab [2].

Consider SVKLCIPDWMCVSE [Phage-2461], for which, in the assay with PSMA Fab [3], the “Phage binding ELISA signal, Anti-PSMA Fab” value is 1.26. The “Phage binding ELISA signal, Anti-PSMA Fab with PSMA antigen” value with PSMA Fab [4] was 0.203.
